Source: patent publication US20180148485A1 (Pieris, published 2018)
Where two headings read alike, the source gives them in different places. Values belong to the binder of their own block, whether it stands above or below them.

How the values were obtained:
[1] = molecular target: T1, recombinant human GPC3 (R&D Systems #2119-GP-050/CF) (human, UniProt P51654 25-559); assay: ELISA, GPC3 coated, anti-NGAL-HRP detection
T1 construct: also called Glypican-3; biotinylated human GPC3
Excerpt: (§1) GPC3 was coated on a microtiter plate and the tested molecules were titrated. Bound molecules were detected via an HRP-labeled human NGAL-specific antibody as described in Example 14. The data was fitted with a 1:1 binding model with EC50 value and the maximum signal as free parameters, and a slope that was fixed to unity.

[2] = molecular target: T1, recombinant human GPC3 (R&D Systems …); assay: ELISA, GPC3 coated, anti-NGAL-HRP detection; remark: listed apart in the source
Excerpt: as §1, with “anti-human” for “human”, “12.” for “14.”

[3] = molecular target: T2, recombinant human CD137-Fc fusion protein (#838-4B-100, R&D Systems) (human, UniProt Q07011 24-186); assay: SPR, CD137-Fc captured by anti-human Fc antibody on CM5 chip, 1:1 model
T2 construct: also called Fc-fusion of human CD137; not shown: Fc part of the bought fusion protein, not described
Description: Binding affinities of the CD137-binding lipocalin mutein and the bispecific polypeptides of SEQ ID NO: 46 and SEQ ID NO: 47 to recombinant human CD137-Fc fusion protein (#838-4B-100, R&D Systems) were determined by Surface Plasmon Resonance using a Biacore T200 instrument (GE Healthcare) in analogy to Example 6. Prior to the SPR affinity assay, a CM5 sensor chip was derivatized with an anti-human Fc antibody using the Human Antibody Capture Kit (GE Healthcare # BR-1008-39) according to the manufacturer's instructions.
Four different concentrations (1000 nM, 200 nM, 40 nM and 8 nM) of the bispecific polypeptides were prepared in running buffer (10 mM HEPES, 150 mM NaCl, 0.05% v/v Surfactant P20, 3 mM EDTA, pH 7.4 (GE Healthcare)) and applied to the chip surface. Applying a flow rate of 30 μL/min, the sample contact time was 180 s and dissociation time was 600 s. All measurements were performed at 25° C. […] Prior to the protein measurements three regeneration cycles were performed for conditioning purposes. Data were evaluated with Biacore T200 Evaluation software (V 2.0). Double referencing was used and the 1:1 Binding model was used to fit the raw data.

[4] = molecular target: T2, recombinant human CD137-Fc fusion …; assay: ELISA, CD137-Fc coated, as described in Example 3
[5] = molecular target: T2, recombinant human CD137-Fc fusion …; assay: dual-binding ELISA: CD137-Fc coated, fusion titrated, biotinylated GPC3 detected with Extravidin-HRP
Description: FIG. 16: provides a representative experiment in which the ability of two bispecific fusion polypeptides of SEQ ID NO: 46 and SEQ ID NO: 47 to bind the targets, GPC3 and CD137, simultaneously was determined. Recombinant CD137-Fc fusion protein was coated on a microtiter plate, followed by a titration of the fusion protein. Subsequently, a constant concentration of biotinylated human GPC3 was added, which was detected via HRP-labeled extravidin as described in Example 16. The data was fitted with a 1:1 binding model with EC50 value and the maximum signal as free parameters, and a slope that was fixed to unity.
The result of the experiment is depicted in FIG. 16, together with the fit curves resulting from a 1:1 binding sigmoidal fit, where the EC50 value and the maximum signal were free parameters, and the slope was fixed to unity.

[6] = molecular target: T1, recombinant human GPC3 (R&D Systems …); assay: SPR, biotinylated fusion captured on CAP chip, GPC3 as analyte (11-300 nM)
Description: The data were double-referenced by subtraction of the corresponding signals measured for the control channel (loaded with Biotin CAPture reagent only) and by subtraction of buffer injections from the binding responses. Association rate constant kₐ and dissociation rate constant kd for the binding reaction were determined using Biacore T200 Evaluation Software V2.0 for data processing and kinetic fitting.

[7] = molecular target: T2, recombinant human CD137-Fc fusion …; assay: SPR, biotinylated CD137-Fc captured on CAP chip, 1:1 model, apparent affinity
Description: Briefly, biotinylated CD137-Fc was captured on a sensor chip CAP and four dilutions (20, 5, 1.3 and 0.3 nM) of each tested agent (fusion protein or SEQ ID NOs: 34 and 35) were prepared in running buffer and applied to the chip surface. Applying a flow rate of 30 μL/min, the sample contact time was 180 s and dissociation time was 600 s. All measurements were otherwise performed and analyzed as described in Example 5.

[8] = molecular target: T2, recombinant human CD137-Fc fusion …; assay: ELISA, CD137-Fc coated, anti-human IgG-HRP detection
Description: The antibody of SEQ ID NOs: 34 and 35 served as the positive control. The target was dissolved in PBS (1 μg/mL) and coated overnight on microtiter plates at 4° C. The plate was washed after each incubation step with 100 μL PBS-T five times. The plates were blocked with 2% BSA (w/v) in PBS-T for 1 h at room temperature and subsequently washed. Different concentrations of the CD137-specific antibody or the fusion polypeptides were added to the wells and incubated for 1 h at room temperature, followed by a wash step. Bound fusion protein was detected after incubation for 1 h at room temperature with 1:5000 diluted mouse anti-human IgG Fab antibody conjugated to HRP (Jackson Laboratories) in PBS-TB. After an additional wash step, fluorogenic HRP substrate (QuantaBlu, Thermo) was added to each well and the fluorescence intensity was detected using a fluorescence microplate reader.
The result of the experiment is depicted in FIG. 3, together with the fit curves resulting from a 1:1 binding sigmoidal fit, where the EC50 value and the maximum signal were free parameters, and the slope was fixed to unity.

T1 sequence (P51654 25-559 limits assumed): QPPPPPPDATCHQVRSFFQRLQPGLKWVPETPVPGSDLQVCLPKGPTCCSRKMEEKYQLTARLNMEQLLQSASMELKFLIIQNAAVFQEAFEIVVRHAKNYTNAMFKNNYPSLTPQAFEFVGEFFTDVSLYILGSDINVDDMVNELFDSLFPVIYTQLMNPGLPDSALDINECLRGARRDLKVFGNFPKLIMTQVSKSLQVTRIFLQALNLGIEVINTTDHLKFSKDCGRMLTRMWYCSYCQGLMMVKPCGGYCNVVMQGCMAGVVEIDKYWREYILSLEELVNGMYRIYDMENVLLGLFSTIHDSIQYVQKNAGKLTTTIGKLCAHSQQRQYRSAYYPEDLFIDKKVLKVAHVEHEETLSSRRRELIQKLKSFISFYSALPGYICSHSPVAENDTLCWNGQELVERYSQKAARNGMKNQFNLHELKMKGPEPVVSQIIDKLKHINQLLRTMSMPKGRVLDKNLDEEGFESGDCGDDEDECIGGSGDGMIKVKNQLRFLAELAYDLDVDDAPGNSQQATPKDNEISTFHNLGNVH

B3: bispecific fusion polypeptide of SEQ ID NO: 46 (designed binder)
chain: QDSTSDLIPAPPLSKVPLQQNFQDNQFQGKWYVVGVAGNGMLREDKDPLKMRATIYELKEDKSYDVTSVAFRNKKCHYKIGTFVPGSQPGEFTLGQIKSGPGETSNLVRVVSTNYNQHAMVFFKEVRQNREWFFITLYGRTKELTSELKENFIRFSKSLGLPENHIVFPVPIDQCIDGGGGGSGGGGSQDSTSDLIPAPPLSKVPLQQNFQDNQFHGKWYVVGQAGNIRLREDKDPIKMMATIYELKEDKSYDVTMVKFDDKKCMYDIWTFVPGSQPGEFTLGKIKSFPGHTSSLVRVVSTNYNQHAMVFFKFVFQNREEFYITLYGRTKELTSELKENFIRFSKSLGLPENHIVFPVPIDQCIDG
Kd [3]: 0.0016 nM
EC50 [4]: 0.2 nM
EC50 [5]: 7.3 nM
Kd [6]: 4.3 nM
EC50 [1]: 0.14 nM

B5: CD137-specific antibody of SEQ ID NOs: 34 and 35 (antibody, human IgG4 S228P, kappa, V domains shown)
VH: QVQLQQWGAGLLKPSETLSLTCAVYGGSFSGYYWSWIRQSPEKGLEWIGEINHGGYVTYNPSLESRVTISVDTSKNQFSLKLSSVTAADTAVYYCARDYGPGNYDWYFDLWGRGTLVTVSS
VL: EIVLTQSPATLSLSPGERATLSCRASQSVSSYLAWYQQKPGQAPRLLIYDASNRATGIPARFSGSGSGTDFTLTISSLEPEDFAVYYCQQRSNWPPALTFGGGTKVEIKR
notes: also called antibody 20H4.9
Kd [7]: 0.092 nM
EC50 [8]: 1.5 nM

Second part, the binder after the results:

EC50 [1]: 0.24 nM
B1: lipocalin mutein of SEQ ID NO: 8 (designed binder)
chain: QDSTSDLIPAPPLSKVPLQQNFQDNQFQGKWYVVGVAGNGMLREDKDPLKMRATIYELKEDKSYDVTSVAFRNKKCHYKIGTFVPGSQPGEFTLGQIKSGPGETSNLVRVVSTNYNQHAMVFFKEVRQNREWFFITLYGRTKELTSELKENFIRFSKSLGLPENHIVFPVPIDQCIDG

EC50 [2]: 0.62 nM
B2: fusion polypeptide of SEQ ID NOs: 53 and 54 (bispecific antibody, human IgG2, lambda)
chain 1: EVQLVQSGAEVKKPGESLRISCKGSGYSFSTYWISWVRQMPGKGLEWMGKIYPGDSYTNYSPSFQGQVTISADKSISTAYLQWSSLKASDTAMYYCARGYGIFDYWGQGTLVTVSSASTKGPSVFPLAPCSRSTSESTAALGCLVKDYFPEPVTVSWNSGALTSGVHTFPAVLQSSGLYSLSSVVTVPSSNFGTQTYTCNVDHKPSNTKVDKTVERKCCVECPPCPAPPVAGPSVFLFPPKPKDTLMISRTPEVTCVVVDVSHEDPEVQFNWYVDGVEVHNAKTKPREEQFNSTFRVVSVLTVVHQDWLNGKEYKCKVSNKGLPAPIEKTISKTKGQPREPQVYTLPPSREEMTKNQVSLTCLVKGFYPSDIAVEWESNGQPENNYKTTPPMLDSDGSFFLYSKLTVDKSRWQQGNVFSCSVMHEALHNHYTQKSLSLSPGKGGGGSGGGGSGGGGSQDSTSDLIPAPPLSKVPLQQNFQDNQFQGKWYVVGRAGNVGLREDKDPPKMWATIYELKEDKSYDVTNVRFARKKCTYSIGTFVPGSQPGEFTLGQIKSEPGGTANLVRVVSTNYNQHAMVFFKEVYQNREIFFIILYGRTKELTSELKENFIRFSKSLGLPENHIVFPVPIDQCIDG
chain 2: SYELTQPPSVSVSPGQTASITCSGDNIGDQYAHWYQQKPGQSPVLVIYQDKNRPSGIPERFSGSNSGNTATLTISGTQAMDEADYYCATYTGFGSLAVFGGGTKLTVLGQPKAAPSVTLFPPSSEELQANKATLVCLISDFYPGAVTVAWKADSSPVKAGVETTTPSKQSNNKYAASSYLSLTPEQWKSHRSYSCQVTHEGSTVEKTVAPTECS

Kd [3]: 0.0006 nM
EC50 [4]: 0.26 nM
EC50 [5]: 7.47 nM
Kd [6]: 3.5 nM
EC50 [1]: 0.16 nM
B4: bispecific fusion polypeptide of SEQ ID NO: 47 (designed binder)
chain: QDSTSDLIPAPPLSKVPLQQNFQDNQFQGKWYVVGVAGNGMLREDKDPLKMRATIYELKEDKSYDVTSVAFRNKKCHYKIGTFVPGSQPGEFTLGQIKSGPGETSNLVRVVSTNYNQHAMVFFKEVRQNREWFFITLYGRTKELTSELKENFIRFSKSLGLPENHIVFPVPIDQCIDGGGGGSGGGGSQDSTSDLIPAPPLSKVPLQQNFQDNQFHGKWYVVGQAGNIRLREDKDPIKMMATIYELKEDKSYDVTMVKFDDKKCMYDIWTFVPGSQPGEFTLGKIKSFPGHTSSLVRVVSTNYNQHAMVFFKFVFQNREEFYITLYGRTKELTSELKENFIRFSKSLGLPENHIVFPVPIDQCIDGGGGGSGGGGSQDSTSDLIPAPPLSKVPLQQNFQDNQFHGKWYVVGQAGNIRLREDKDPIKMMATIYELKEDKSYDVTMVKFDDKKCMYDIWTFVPGSQPGEFTLGKIKSFPGHTSSLVRVVSTNYNQHAMVFFKFVFQNREEFYITLYGRTKELTSELKENFIRFSKSLGLPENHIVFPVPIDQCIDG
